Where “and” joins values, the source holds several entries; their conditions need not be identical. Equal entries are not always repeated. Numbered stars: 1 amine (or outer) side, 2 acyl side, 3 side chain; on linkers, the order of the positions; unused ones are H or OH. Square brackets hold non-standard residues; d marks the D form. Peptide text beside a SMILES is read from it. γGlu = O=C(O)[C@H](CCC(=O)[*:2])N[*:1]
How the values were obtained:
[1] = Dynamic light scattering size; format: physicochemical; details: PBS pH 7.4, 37° C.
Method: Dynamic light scattering (DLS) analyses were performed using a Malvern Instruments Zetasizer Nano ZEN3600 instrument (Westborough, Mass.) with reproducibility being verified by collection and comparison of sequential measurements. G4-PAMAM-O-GABA-NH-FITC and G4-PAMAM-O-GABA-NH-Alexa conjugate samples were prepared using PBS pH=7.4. DLS measurements were performed at a 90° scattering angle at 37° C. Z-average sizes of three sequential measurements were collected and analyzed.

[2] = Stability of fluorophore-dendrimer conjugates in PBS (HPLC); format: physicochemical; details: PBS (pH 7.4), after 72 hours
Text: The FITC-labeled compound (G4-PAMAM-O-GABA-NH-FITC) was purified by dialysis (membrane cutoff 1000 Da) against DMSO in dark by replacing DMSO, to remove un-reacted compounds. Purity of G4-PAMAM-O-GABA-NH-FITC conjugate was confirmed by HPLC using fluorescent detector (λex=495 nm/λem=521 nm).
G4-PAMAM-O-GABA-NH2 dendrimer was reacted with the Alexa 488 carboxylic acid succinimidyl ester (Scheme-6). The N-succinimidyl activated ester of Alexa 488 couples to the terminal primary amines to yield amide-linked G4-PAMAM-O-GABA-Alexa conjugate. The formation of conjugate was confirmed by HPLC (FIG. 89) using florescent detector (λex=495 nm/λem=521 nm). […] The absence of any other peak in chromatogram after dialysis of product confirms the absence of free alexa. […] The dendrimer alexa conjugate was prepared for enhanced histological visualization of samples as confocal imaging causes quenching and also to match with the intensities of other alexa conjugated secondary antibodies.

[3] = system: neuroinflammation in newborn rabbit model of cerebral palsy; assay: In vivo efficacy in newborn rabbit model of cerebral palsy (maternal endotoxin)
Method: New Zealand White rabbits (CoVance Research Products Inc., Kalamazoo, Mich.) with timed pregnancies confirmed with breeders (having a history of delivering 7-11 kits per litter) underwent laparotomy under general anesthesia (2-3% isoflurane by mask) on gestational day 28 (E28, term pregnancy is 31-32 days). 1 mL of saline for the control group (n=6) or 1 mL of saline containing 20 μg/kg of LPS (Escherichia coli serotype O127: B8 from Sigma-Aldrich, St Louis, Mo.) for the endotoxin group (n=6), was equally divided and injected into the uterine wall using a 27 gauge needle between the fetuses taking care not to enter the amniotic sac. This ensured that all the kits were exposed to the same amount of endotoxin. 0.5% NaHCO3 was infused at end of surgery and additional dose NaHCO3 was given at 2 hour after surgery according blood gas.
The following animal groups were enrolled and used for this example: • Group 1: Pups exposed to 20μ/kg E. Coli LPS in utero treated with saline I.V. (200 ul), Observe for 5 days (N=5-7) • Group 2: Pups exposed to 20μ/kg E. Coli LPS in utero treated with NAC I.V. (200 ul), single dose 10 mg/kg. Observe for 5 days (N=5-7) • Group 3: Pups exposed to 20μ/kg E. Coli LPS in utero treated with NAC I.V. (200 ul), single dose 100 mg/kg. Observe for 5 days (N=5-7) • Group 4: Pups exposed to 20μ/kg E. Coli LPS in utero treated with G4-PAMAM-S—S-NAC I.V (200 ul), single dose 1 mg/kg (based on preliminary data). […]
All live postnatal day 1 (PND1) control and endotoxin kits from four consecutive litters in each group were tested to reduce the risk of selection bias. The rabbit kits were assessed and scored for behavioral testing, as described by Derrick et al. Briefly, the kits were videotaped and scored on a scale of 0 (worst) to 3 (best) by two blinded observers for (1) posture (ability to maintain prone posture), (2) righting reflex (ability to right itself from supine to prone position for 10 attempts), (3) activity and locomotion on a flat surface (assessed by grading the quality, intensity, and duration of spontaneous movement of the head and front and back legs), (4) ability to move in a straight line and in circles, (5) coordination of suck and swallow assessed by feeding the rabbit kits artificially with formula from a syringe with a dropper, and (6) ability to move head during feeding (scored from 0-3 in which 0 is no movement of head and 3 is forceful movement of head and body). The tone on passive flexion and extension was assessed using the scoring based on the Ashworth scale, as described by Derrick et al, in which 0 indicated no increase in tone and 4 indicated the limb was rigid in flexion or extension. […]
secondary to maternal endotoxin administration were treated with a single dose of either PBS, NAC 100mg/kg, D-NAC 1 mg/kg or 10mg/kg, or dendrimer alone on day 1of life (31 days post-conception). […] Animals were video-taped for 10 minutes and were scored by two observers in a blinded manner. Scores were based on the maximum number of steps taken without falls (scored from 0-4) and number of hops without falls (scored from 0-4) in one minute of continuous activity. […]

Solubility in PBS/H2O = format: physicochemical
[4] = Inhibition of GSH depletion by PEG-NAC conjugates; format: cell-based; details: equimolar NAC 0.5 mM
[5] = In vitro NAC release from 6-Arm and 8-Arm PEG-S-S-NAC conjugates in PBS with GSH; format: physicochemical; details: intracellular GSH concentration (2 and 10 mM), within 2 hours
Method: The in vitro release of NAC from the 6-Arm-PEG-S—S-NAC and 8-Arm-PEG-S—S-NAC conjugates was performed in PBS (pH=7.4) at 37° C. Appropriate amounts of PEG-S—S-NAC conjugate were dissolved in release media (PBS buffered) to form a solution of 1 mg/ml into eppendorf tube and GSH was added to the conjugates to form 10 mM, 2 mM, or 2 μM concentrations and to initiate the release of NAC. All samples were run as triplicates for statistical analysis. As control samples, conjugates were analyzed in PBS buffered media in the absence of reducing agents. The solutions were kept at 37° C. and stirred continuously. At predetermined time intervals, 30 μL of samples were withdrawn and immediately analyzed release of NAC and GS-NAC with RP-HPLC and the concentrations of analytes were determined by using appropriate calibrations prepared under same conditions.

microglial cells = assay: Toxicity of PEG-NAC conjugates to microglial cells; format: cell-based; details: 0.008-0.8 mM
BV-2 cells = assay: TNF-α release assay (ELISA), PEG-NAC conjugates; format: cell-based, mouse; details: 5 mM
Method: (A) BV-2 cells (passage 22) were co-treated with 100 ng/mL of LPS and the indicated concentration of NAC, 6-Arm-PEG-S—S-NAC conjugate (1) and its correspond 6-Arm-PEG-SH for 72 hours (B) BV-2 cells were co-treated with 100 ng/mL of LPS and the indicated concentration of NAC, 8-Arm-PEG-S—S-NAC conjugate (3) and its correspond PEG for 72 hours. Three samples were in each group. TNF-α in culture medium was measured using mouse TNF-α ELISA Kit.
The procedure for cell culture and drug treatment was the same as described in an earlier example. TNF-α secretion was measured using an ELISA Kit according to the manufacturer's instruction. In brief, 50 μL of supernatant from each sample was added in 96-well ELISA plates. Biotinylated antibody reagent was applied to each well and incubated the plate at room temperature for 2 hours. After washing the plate with PBS-Tween 20, diluted streptavidin-HRP was added, and the plate was incubated at room temperature for 30 min. After washing the plate, premixed TMB substrate solution was added. The plate was developed in the dark for 30 min, and read at 450 nm using a microplate reader. The concentration of TNF-α was calculated using murine rTNF-α as standard.

[6] = Transmembrane transport and permeability, chorioamnion; format: in vitro ADME, human
Text: (§1) All human fetal membrane specimens were obtained at the time of cesarean section for obstetrical indications. The fetal membrane comprising chorioamniotic membrane (intact membranous tissue containing both amnion and chorion together) (n=7) and amnion (n=7) and chorion (n=7) were separately procured (size 6×9″). Each membrane was cut into 9 pieces for the 9 sets of diffusion chamber. The fresh membranes were collected immediately after the delivery, washed with PBS to remove the blood and stored in PBS until (˜1 h at 4° C.) it was mounted on the diffusion chamber (37±0.5° C.). Excess membranes were trimmed. The diffusion experiments were performed for 48 hours by mounting the membrane in the chamber to study the transport across the membranes. In all the experiments with chorioamniotic membrane the choriodecidua (maternal side) was placed facing the donor chamber and the amnionic epithelium (fetal side) was facing the receptor chamber. The chorion and amnion were mechanically separated by gently pulling the two membranes apart. For the chorion, the side attached to amnion was placed facing the receptor chamber and for the amnion the side attached to the chorion was placed facing the donor chamber in the diffusion apparatus. For histological evaluation, the tissue samples were collected at 0.5, 1, 2, 3 and 4 hours for and were fixed in 10% formalin overnight. Further, some sections were analyzed by hematoxylin and eosin (H & E) staining. The membrane thickness was measured using the Mitutoyo Super Caliper by placing the respective membranes between the two glass slides and subtracting the thickness of the glass slides without the membrane.
Permeation experiments were carried out using a two-chamber (donor and receptor) side-by-side Permegear diffusion cell with a chamber volume of 3 mL and with a diameter of 13 mm and a diffusional area of 1.32 cm^2. The fetal membranes (chorion and amnion together, amnion and chorion) each (n=9) were mounted between two halves of the donor and receptor cell (9 sets), which were further clamped together and sealed tightly with the rubber packing at the end of each glass chamber. […] The donor cell (volume 3 mL) was filled with solution of compounds whose permeability was evaluated. […] The concentration of compound in the receptor medium was determined using a Molecular Devices SpectroMax M2, UV visible and Fluorescent plate reader at ex 495/em 521. The cumulative amount of compound transported across the membrane in the receptor cell was determined using a calibration curve (a transport of 50% corresponds equilibrium achieved). […]
(§2) [formula] […] The thickness of the chorioamnion, chorion and amnion was 0.22 mm, 0.16 mm and 0.05 mm respectively (n=7), as measured with the help of Mitutoyo Super Caliper. […]

[7] = Transmembrane transport and permeability, chorion; format: in vitro ADME, human
Text: as §1
(§3) Permeation experiments were carried out using a two-chamber (donor and receptor) side-by-side Permegear diffusion cell with a chamber volume of 3 mL and with a diameter of 13 mm and a diffusional area of 1.32 cm^2. The fetal membranes (chorion and amnion together, amnion and chorion) each (n=9) were mounted between two halves of the donor and receptor cell (9 sets), which were further clamped together and sealed tightly with the rubber packing at the end of each glass chamber. The receptor cell (volume 3 mL) was filled with sterile PBS (pH 7.4). The donor cell (volume 3 mL) was filled with solution of compounds whose permeability was evaluated. […] The system was maintained at 37° C. by using a circulating water bath and a jacket surrounding each cell. The donor and receiving medium was continuously stirred (600 rpm) with a magnetic bar to avoid stagnant aqueous diffusion layer effects. Aliquots (200 μL) were collected from the receptor cell every 30 min till first 6 hours and at predetermined intervals thereafter and replaced with equal volume of PBS to maintain sink conditions throughout the study. […] The concentration of compound in the receptor medium was determined using a Molecular Devices SpectroMax M2, UV visible and Fluorescent plate reader at ex 495/em 521. The cumulative amount of compound transported across the membrane in the receptor cell was determined using a calibration curve (a transport of 50% corresponds equilibrium achieved). All the experiments were conducted in dark room. All experiments were done in triplicate and the results are reported as mean±STDev.
as §2

[8] = Transmembrane transport and permeability, amnion; format: in vitro ADME, human
Text: as §1, §3
[formula] To determine the permeability coefficient, P, a plot of −V/2A ln (1−2Ct/C0) against t was constructed and linear fitting was performed. The slope of the linear portion of the graph yields a permeability coefficient. The thickness of the chorioamnion, chorion and amnion was 0.22 mm, 0.16 mm and 0.05 mm respectively (n=7), as measured with the help of Mitutoyo Super Caliper. […] The FIGS. 93A-C and FIG. 94 show the plots used for calculation of the permeability and the correlation in all the cases ranged from 0.96 to 0.99.

G4-PAMAM-O-GABA-NH-Alexa-488
size (DLS) [1]: 5.6 nm
stability of the conjugate [2]: alexa was not released from the conjugate

PAMAM-O-GABA-NH—CO-Ethyl-S—S-NAC [Dendrimer-NAC]
suppression of NF-κB ([3]; 1 mg/kg single dose on PND-1, hippocampus PND 5): as effective as 100 mg/kg of NAC alone
suppression of IL-6 relative to free drug ([3]; hippocampus): 10-100 times
suppression of TNF-alpha mRNA expression relative to free drug ([3]; hippocampus, 5 days of age): 10-100 times
effect on myelination compared to the drug alone ([3]; rabbit, in vivo): increased myelination
efficacy relative to free NAC ([3]; single i.v. administration): ≤ 100 times

CC(=O)N[C@@H](CCC(=O)N[C@@H](CS)C(=O)NCC(=O)O)C(=O)O [GS-S-NAC, N-Acetyl-glutathione] (Ac-[γGlu]-Cys-Gly-OH)
Solubility in PBS/H2O (Solubility in PBS/H2O): Soluble

6 Arm-PEG-S—S-NAC Conjugate [6-arm-PEG-S—S-NAC]
inhibition of GSH depletion versus free NAC [4]: more efficient
NAC released [5]: 74%
toxicity to the microglial cells (microglial cells): nontoxic
inhibition of TNF-α production (BV-2 cells): 70%

G4-PAMAM-O-GABA-NH-FITC [D-FITC]
Permeability coefficient, Chorioamnion ([6]; 0.6 mg/mL): 7.5×10^−8 cm^2/s
Permeability coefficient, Chorioamnion ([6]; 3 mg/mL): 5.8×10^−8 cm^2/s
transport across chorioamnion ([6]; in 5 hours): ≤ 3%
Permeability coefficient, Chorion ([7]; 0.6 mg/mL): 2.94×10^−8 cm^2/s
Permeability coefficient, Chorion ([7]; 3 mg/mL): 2.94×10^−8 cm^2/s
transport across chorion ([7]; in 5 hours): ≤ 3%
transport across chorion ([7]; in 20 hours, 0.6 mg/mL, listed as G4-PAMAM dendrimer): 10% and ~10.5%
size (DLS) [1]: 5.4 nm
Permeability coefficient, Amnion ([8]; 0.6 mg/mL): 1.86×10^−8 cm^2/s
Permeability coefficient, Amnion ([8]; 3 mg/mL): 2.08×10^−7 cm^2/s
transport across amnion ([8]; in 5 hours): ≤ 3%
transport across amnion ([8]; in 20 hours, 0.6 mg/mL): 22%
stability of the conjugate [2]: FITC was not released from the conjugate

8 Arm-PEG-S—S-NAC Conjugate [8-arm-PEG-S—S-NAC]
inhibition of GSH depletion versus free NAC [4]: more efficient
NAC released [5]: 74%
toxicity to the microglial cells (microglial cells): nontoxic
inhibition of TNF-α production (BV-2 cells): 70%

Source: patent US10172951B2, “Dendrimer based nanodevices for therapeutic and imaging purposes” (priority 2009, dated 2019)
